The values that follow come from PMC5591402.

The labels stand for the following.
B1: N2.17 VHH F100fS (protein)
chain: QGQLVESGGGSVQAGGSLRLSCAASGIDSSSYCMGWFRQRPGKEREGVARINGWGGVKTAYADSVKDRFTISRDNAENTVYLQMNSLKPEDTAIYYCAAKSSPGYCGGTWSNFGYWGQGTQVTVSS
B2: N2.17 VHH S96F (protein)
chain: QGQLVESGGGSVQAGGSLRLSCAASGIDSSSYCMGWFRQRPGKEREGVARINGWGGVKTAYADSVKDRFTISRDNAENTVYLQMNSLKPEDTAIYYCAAKFSPGYCGGTWFNFGYWGQGTQVTVSS
B3: N2.17 VHH W52bL (protein)
chain: QGQLVESGGGSVQAGGSLRLSCAASGIDSSSYCMGWFRQRPGKEREGVARINGLGGVKTAYADSVKDRFTISRDNAENTVYLQMNSLKPEDTAIYYCAAKSSPGYCGGTWFNFGYWGQGTQVTVSS
B4: N2.17 VHH T100dS (protein)
chain: QGQLVESGGGSVQAGGSLRLSCAASGIDSSSYCMGWFRQRPGKEREGVARINGWGGVKTAYADSVKDRFTISRDNAENTVYLQMNSLKPEDTAIYYCAAKSSPGYCGGSWFNFGYWGQGTQVTVSS
B5: N2.12 VHH W52bL (protein)
chain: QGQLVESGGGSVQAGGSLRLSCAASGIDSSSYCMGWFRQRPGKEREGVGRINGLRGIKTAYADSVKDRFTISRDNAENTVYLQMNSLKPEDTAIYYCAAKSSPGYCGGTWSNFGYWGQGTQVTVSS
B6: N2.12 VHH S96F (protein)
chain: QGQLVESGGGSVQAGGSLRLSCAASGIDSSSYCMGWFRQRPGKEREGVGRINGWRGIKTAYADSVKDRFTISRDNAENTVYLQMNSLKPEDTAIYYCAAKFSPGYCGGTWSNFGYWGQGTQVTVSS
B7: N2.12 VHH G49A (protein)
chain: QGQLVESGGGSVQAGGSLRLSCAASGIDSSSYCMGWFRQRPGKEREGVARINGWRGIKTAYADSVKDRFTISRDNAENTVYLQMNSLKPEDTAIYYCAAKSSPGYCGGTWSNFGYWGQGTQVTVSS
B8: N2.12 VHH T100dS (protein)
chain: QGQLVESGGGSVQAGGSLRLSCAASGIDSSSYCMGWFRQRPGKEREGVGRINGWRGIKTAYADSVKDRFTISRDNAENTVYLQMNSLKPEDTAIYYCAAKSSPGYCGGSWSNFGYWGQGTQVTVSS
B9: N2.12 VHH R53G (protein)
chain: QGQLVESGGGSVQAGGSLRLSCAASGIDSSSYCMGWFRQRPGKEREGVGRINGWGGIKTAYADSVKDRFTISRDNAENTVYLQMNSLKPEDTAIYYCAAKSSPGYCGGTWSNFGYWGQGTQVTVSS

One test addresses T1, TAMRA-labeled α-synuclein peptide.
T1 chain: GYQDYEPEA
In words: fluorescence polarization. The following applies: chain shown with the change;; parent: est. 8.6 x10^7 M^-1; read off a plot.
For B1, the Ka was 9.6 x10^7 M^-1. Regarding B2, the Ka was 1.6 x10^7 M^-1. On the same count and under the same terms, with B3 the figure was 3.3 x10^7 M^-1. Still for that read-out and setting: next, B4: 3.8 x10^7 M^-1.

Staying with this test, now noted: chain shown with the change;; parent: est. 13 x10^7 M^-1; read off a plot.
Turning to B5, the Ka is 6.2 x10^7 M^-1. As to B6, the Ka was 6.7 x10^7 M^-1. For the molecule B7, the Ka was 13 x10^7 M^-1. Take B8: the Ka is 8.5 x10^7 M^-1. As for B9, the Ka was 7.1 x10^7 M^-1.
